One test deals with T1, recombinant human CD47 (human, UniProt Q08722 19-139, limits assumed).
T1 construct: also called single ligand (CD47)
Description: ELISA, recombinant human CD47 coated at 50 ng/well, anti-human IgG Fcγ-HRP detection.

The next test addresses T2, recombinant human PD-L1 (human, UniProt Q9NZQ7 19-238, limits assumed).
T2 construct: also called single ligand (PD-L1)
The experiment in a line: ELISA, recombinant human PD-L1 coated at 75 ng/well, anti-human IgG Fcγ-HRP detection. (An ELISA detects its analyte on a solid surface through an enzyme-linked reagent.)

The target of test [1] is T3, recombinant human CD47-fc (human, UniProt Q08722 19-139, limits assumed).
T3 construct: Coated at 50 ng/well in the dual-ligand ELISA
T3 sequence (Q08722 19-139 limits assumed): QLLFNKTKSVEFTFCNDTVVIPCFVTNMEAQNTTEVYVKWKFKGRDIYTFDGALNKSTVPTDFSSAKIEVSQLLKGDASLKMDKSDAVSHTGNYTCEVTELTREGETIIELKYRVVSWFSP
The experiment in a line: dual-ligand (bridging) ELISA: CD47-fc coated, antibody titrated, then PD-L1-his at 50 ng/well, anti-his-HRP detection.

The results in this text go back to patent US20240254233A1 (IMMUNEONCIA THERAPEUTICS, published 2024).

For orientation: EC50 means the concentration giving half of the maximal effect.

T1 sequence (Q08722 19-139 limits assumed): as above
T2 sequence (Q9NZQ7 19-238 limits assumed): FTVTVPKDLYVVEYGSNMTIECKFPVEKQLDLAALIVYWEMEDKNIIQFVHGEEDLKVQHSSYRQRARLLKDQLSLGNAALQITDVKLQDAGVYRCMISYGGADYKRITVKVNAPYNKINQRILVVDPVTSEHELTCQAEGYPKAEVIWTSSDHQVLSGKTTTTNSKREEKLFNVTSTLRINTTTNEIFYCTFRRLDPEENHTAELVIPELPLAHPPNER

B1: IMC-002 (antibody, V domains shown)
VH: QVQLVQSGAEVKKPGASVKVSCKASGYTFTSYYMHWVRQAPGQGLEWMGIINPSGGSTSYAQKFQGRVTMTRDTSTSTVYMELSSLRSEDTAVYYCARSTLWVSEFDYWGQGTLVTVSS
VL: QSALTQPASVSGSPGQSISISCTGTSSDVGGHNYVSWYQQHPGKAPKLMIYDVRNRPSGVSNRFSGSKSGSTASLTISGLQTEDEADYYCNSYTGSRTYVFGSGTKLTVLG
Turning to B1, the concentration giving a half-maximal response (EC50) with recombinant human CD47 turned out to be 2.77 ng/mL.

B2: IMC-001 (antibody, V domains shown)
VH: QMQLVQSGAEVKKPGSSVKVSCKASGGTFSSYAYSWVRQAPGQGLEWMGGIIPSFGTANYAQKFQGRVTITADESTSTAYMELSSLRSEDTAVYYCARGPIVATITPLDYWGQGTLVTVSS
VL: SYVLTQPPSVSVAPGKTATIACGGENIGRKTVHWYQQKPGQAPVLVIYYDSDRPSGIPERFSGSNSGNTATLTISRVEAGDEADYYCLVWDSSSDHRIFGGGTKLTVL
In the case of B2, the concentration giving a half-maximal response (EC50) in the test with recombinant human PD-L1 stood at 0.989 ng/mL.

B3: IMC-201 (bispecific antibody, human IgG1, lambda)
heavy: not shown
light: QSALTQPASVSGSPGQSISISCTGTSSDVGGHNYVSWYQQHPGKAPKLMIYDVRNRPSGVSNRFSGSKSGSTASLTISGLQTEDEADYYCNSYTGSRTYVFGSGTKLTVLGQPKAAPSVTLFPPSSEELQANKATLVCLISDFYPGAVTVAWKADSSPVKAGVETTTPSKQSNNKYAASSYLSLTPEQWKSHRSYSCQVTHEGSTVEKTVAPTECS
notes: also called Ab 1159.1
Take B3: the concentration giving a half-maximal response (EC50) in test [1] was found to be 17.4 ng/mL; with recombinant human CD47, 4.09 ng/mL; with recombinant human PD-L1, 7.24 ng/mL.
